Test results taken from patent publication US20160040149A1, “Compositions Having Dicamba Decarboxylase Activity and Methods of Use” (priority 2013, published 2016).

Assay: Saturation mutagenesis of SEQ ID NO:109: dicamba decarboxylation activity of point mutants (CO2 released), fold of backbone (Tables 7, 8, Megatable 1)
Details: decarboxylation activity (CO2 released) of point mutant vs unmutated backbone protein; backbone SEQ ID NO: 109

Molecule | Fold Activity [fold]
75 (protein, listed as Ectocarpus siliculosus) MAKIDSYTHFACPAFMDHLEAESGHPMVFRGLFSSIPELSDIDLRIRYMDEHGIDVHCLVPLPWLECEPGLHADEGKALEACRIANDEMARVVARFPDRLIGVALIPTTTEQAMIQETTRAVKELGMAGVALFVGPTAKPPDMACFEGLYRTCEELGAVVWMHPCRPQSYADYDSYKGEGSKHQIWNTFGWIYDTSVAMVHIALAGVFRRYPGLKVVTHHHGAMVPFFTARFDTQRRNFQEVEGDDLLEDLRLFYCDTATFGESAANIQQAIDFFGKSQVLFGTDTPMDMGTRGMFTRTTIASVEALGAAPEDKESFYAGNVLDMLGERFAGISGARGAVAARPKGDSTRIAASL | 1.7
78 (protein, listed as Marinobacter adhaerens) MALIDLHAHAPHPDYYDQHPHWGPAFELQSDGDIKLRVGHWVLSLGAPERKQALREAHARGETLDVQEYMAKWRDPEHRLASMDAAGQNAQVLSVPSHCYMYWAEPEFGVPFAKKVNDSLAEYCSAAPDRLMFWAHAPLNVPKEAAKEIRRACTELGAKGLVAGGSNFGGLEFDSPEMDPVWEALCDLDLPMFVHGYNQSVTWGEEANTDRYETTAIVGMNYDESKCFWYMINGGVFDRFPNLKVYITHGGGFVPYQLGRMAQTNPNLDTYHNKKPFLEYLKNFYFDVELHEVPMRQAMVEVIGADRVLYGSNFGGSDAVRHDLTDDLKLSQEDLDKIRWKNACDLLHLDPNKLGKVRG | 1.1
3 (protein, listed as Lactobacillus plantarum) MAKLITVEEHFESAAVTAAMRQAVGNAVLPAVSPALRQYMRDNLPSPAIMQDTQHERLAFMAQYGIDMQVLSYGNSSPQNLSPEQAVPLSQLANDELAKAVVAHPDRYAGLAVLPVGDPQAAVAELNRAVTTLGLRGVLLKGNYQNKFFDEPFFLPIFEAAAALDVPVYFHPSFIPQAVTSHYFESNQWSDVVTGILSSAGYGWHMDVGIQVIRMIASGIFDKLPGLKLISGHWGELVPLFLERLDDELTTYTDLQYPFSTYYRHNVYVTPSGILSAPQLQFMLAEMGADHLMYSIDYPYKQPETSGSFLDIADLTDEQRAQIAFGTATTLFKL | 0.9
85 (protein, listed as Maritimibacter alkaliphilus) MAADRKPGLVSVEEGFMIPEVVAELSRIAGGVPSMKSGPIAGPFMDDLLDIGKGRVARMDADGVAVQILALAAPGVQKFDPDTALALSRLTNDRLAEAIAAHPARFGGLAAAPPQAAREGAKELDRAITTLGLNGLIVNSHTNDLYLDDPSFWPLLEAAEALDVPVYLHPREPAAGIEGGLMAMTGFTVGWAYAVETGTHLLRMIAAGVFDRFPRLRIVLGHLGEMIPFMLDRIDNRYPFEMGVTGAKPLPRKPSDYFRDHVTVATSGMNFNAPMRAAIEVLGADKVMFAADYPMERQDEEVAKFAALDLTPDERKRIGEDNARRVFGL | 1.4
79 (protein, Pyrenophora teres) MATTTTPSTLIATLESHLTPTLAFTSPTTSPTQPALHLIPPTTLTKLRNLGPGRVKDMHMLGHSRQIISHIPVAAPPQICSRFNDAIHAATMTNTAKFSVLAVLPTDGMEAAKELARCVSKYRFVGGVIGLNRGLRINGEGWEELWGLAERLRIPIMFREMWPLAFEIVDYQHHLPYSALGPILTQLHTSHTSSPLPLVRLYLSSVFDHYPSLRLVLAHPGSLPSLVPRIESLINSIPATDKPKRSFLDVWQHNIYLTTADAQDMSSLRALLEQIPVDRVLYASNYPFEERGNELMNELRESEFLTNIEWERVAWVNAETLFNLKEAGTKEARQLTTIPSSRS | 0.9
74 (protein, listed as Ramlibacter tataouinensis) MATVIDVHTHMFTTKWLELLKKEGGQYNIQTRPDGQQEIFRGNTPVVIPQKGHFDWKLRIQHMDQAGIDVSVVSLTCPNVYWGGEDVSVRAAREANDNVAQAQTAYPDRIRWFASLPWEYMATVIDVHTHMFTTKWLELLKKEGGQYNIQTRPDGQQEIFRGNTPVVIPQKGHFDWKLRIQHMDQAGIDVSVVSLTCPNVYWGGEDVSVRAAREANDNVAQAQTAYPDRIRWFASLPWEYPQRAVEELERSCAQGAAGVMVLANVAGRSLTDPLFAPVWAEIDRRALPVLVHPTDPPGVDLMDMTKFDLSWSVGFMFDTTLAITRMIFEGFFDRYPNLRIIASHGGGTLPYLVGRFEKGDEVELASRRQMKRKPTDYLRHIHYDCITYNLGALQYLISVVGAGQVMFGTDWPHWVHDTRGAFANTAQLPQEQTRAVRGANAQRLFKL | 1.4
84 (protein, listed as Mycobacterium rhodesiae) MASLIALEEHYAWDPASEGNVVATWLRANNGVAYDRLYDRGPLRIEQMDAAGIDFQILSLFDPGVQDEVDAVRAVDLARRANDDLAESVRANPSRFGGFATLATQQPDAAVAEFDRAVTELGLVGGLINGHCQGRYLDDPAYEALFSRAEALGAPIYLHPTTPHPAVMDAWFAPYVGDGLHLASWGFAAETGTHVLRLIYSGLFDKFPRLQMIIGHLGEMLPFAAYRIDRYYGLGGGGTGHTLQHLPSDYLRNNFHVTTSGNFCSPALDCTLDVMGADRVMFSVDYPMDDNQTGADFLASYPMDDTNRRKVASENALRLFGDRIPAALRN | 1
81 (protein, listed as Verticillium dahliae) MAASTKPKVVDIHTHMYPPSYIDILTSRTAIPVVRTFPQAADPRLILLDAEQQALDAALQDPTAKPPGRPLTSHYASLDQKIHFMDTHSIDISVVSLANPWLDFIEPKEAAATARSVNDEFEAMCASQPGRLFFFAALPLTAPLPALLEAVRHVAELEHCRGVILGTSGLGSGLDDPELVPVLEAVAAAALTVFLHPHYGLPNDVWGPRASAEYGHVLPLALGFPMETTIAVARMYLAGVFDRVPALRMLLAHSGGTLPFLAGRIESCILHDGQLVAEGKVGAARRTIWDVLREQVYLDAVIYSEIGLKAAIAASGGADRLMFGTDHPFFPPLGTDEQAKKESRINAGGSRPMITGNAMINGHGGLCNHITQSDYQDVVL | 1.2
83 (protein, listed as Mycobacterium rhodesiae) MALIALEEHYAWSPVSAGNVVGSWLETHNVTAYQRLYDRGPLRLEQMDAAGIDFQILSLFDPGVQDDDDTARAVENARRANDDLAETVRAAPDRFGGFATLAPQDPDAAAAELERAVGELGLVGGLINGHTHGRYLDDPAYLGLFECAQRLGVPIYLHPTTPHPAVMDAWFAPYVKDGLHLASWGFAAETGTHALRLIYSGLFDTFPRLQMILGHLGEMLPYAAYRIDRYYGLGGGDDGGRLARLPSEYLRDNFHVTTSGNFNPVAFACALDVMGPDRLMFSVDYPMDDNVTGAEFLRNLEVDDDVRRKVAGENALQLFGDKIPRR | 1.9
73 (protein, listed as Sphaerobacter thermophilus) MARIDAHAHAQPPEYLDALLASGRYESVRDAEGRIVVRERGSRFLTITPQMHHPEQRVAEMDEAGIDMQILSVTTPQVYFLQGQAAVDLARRCNDYLADIVRSYPTRFRALASVPLTADPDAAVREFVRCLDDLGMVGAIIGSNIDGRPIDDPAFDAFYAEADRRATTLFIHPMVPAGIEVMNPYALAPLVGFMFDTTLAVSRLIFSGFFERYPRVKVLVGHLGAAVPYLAGRLDIGWRSYSDCQGIPHPPTEYIRRLYLDTVSFHAPALRCALETVGPDRIVFGSDYPHVIGDVGGAIASIQQALPATTHDGVLGHTAAELFGVSA | 1.2
82 (protein, listed as Rhodopseudomonas palustris) MAQNETPVIAIEEHYWDPEMVARFPAGENASPFSTLLTELGDVRLRAMDEAGIDVQVLSHGAPAAQKLPPDVAPELTRRVNDRLAEACARFPNRFAAFAALPTPAPEAAARELERCVRDLGFKGAMIHGLTNGLFIDDKRFWPIFEVAEKLDVPIYLHPSVPHADVTRYYYDDYAREFPTVIRPAWGFTVETATQAIRLILSRALESYPRLQIILGHLGETLPFLLWRINQALARPGQTPLDFRKQFCDHFHVTTSGFFSTPALICTMLELGIDRIMFAVDYPYVVNRDGTDWVQQLQISPDDKRKLVGGNARRLLKL | 0.9
77 (protein, Burkholderia xenovorans) MALIDLHAHAPHPGYYNQHPHWGPFFERHEDGDVKLRVGDWILTLGSPERKALVRAGKGPTVEEYQARWADPKVRLAGMDAAGQNAQVVSVPSHCYMYWAEKEFSVPFATKVNDTFAEYCSAAPDRLMFWAHAALNAPEQAALELRRACTELGAKGLVAGGANFGGLEFDSPELDPVWKVLCDLDLPMFIHGYNQSVTWGKKANDDRYETTAIVGMQYDETRCFWNLVCGGVLDRFPGLKVYITHGGGYVPYQLGRLAQCNGNLDVAHNKKPVLEYLKNNFYFDVELHEVPMRQALIDIIGADRVLYGSNFGGSDAVRHDLTEGLRLSDDDLQKIRWKNACKLLHLDPAKIGEPAKKQAVSA | 1.3
76 (protein, listed as Polymorphum gilvum) MAKKIDIFNHIWPEPFFKALIAHIGEMTDITMRSGAVPMMTNLDRRFEVMDMFGPDYMQVLSLASPPLEKLADPAKALELSRIGSDSLAELCQRYPERFPAFIGTAPLSNPAAVVGECRRAIEDLGAAGMQIFTNVAGKPLDLAEFEPFFEYMASAGKPVWLHPARGEAFADYQTEKRSEYEIWWTFGWPYETSAAMARLVFSRMFDKYPGLKVITHHAGGMVPFFEGRVGPGWDQMGARTTDRDLAAVRKALKRPHLDYFKEFYADTASFGSRKAIEHAIEFFGEDRVLFASDAPFDPEGGPMYIRETMRCIDSLDLTDAQRRKIYHGNATALLGLSL | 1.1
72 (protein, Cupriavidus necator) MADCPCCVSPKRRRLLGSVSAIAAGMMAGLPALAAQPSTAAAGTGKPLSIDIHAHYYSESFLGLLGGEGKQFGGHFFRNDDSFTFQTPAGGLGPLPMKFIDVEQRVRDMDNSGVDVQAISLSVPMVYWADRTLNAKLARAWNTAASDVHRKHPTRFVVLATLPMLNANDAIDELEFAAGLPGVRGIYMGTNINNRDLDDPLFSPIFKRIEQLNLPIFLHPQQTVGGARLADFYLSNLLGNPFDTAIAASHLILGGVLDKYPALHFSLPHAGGALPILVGRIDAGWSMRSETKRVAQKPSSYLRRFSYDTISHSGPTLDFLIRNIGADRLVLGSDYCFDMGYEQPVRFLDRLALPDDQKRMVVGGNAARLLNL | 1.2
80 (protein, listed as Cordyceps militaris) MAAASTPVVVDIHTHMYPPSYIAMLEKRQTIPLVRTFPQADEPRLILLSSELAALDAALADPAAKLPGRPLSTHFASLAQKMHFMDTNGIRVSVISLANPWFDFLAPDEAPGIADAVNAEFSDMCAQHVGRLFFFAALPLSAPVDAVKASIERVKNLKYCRGIILGTSGLGKGLDDPHLLPVFEAVADAKLLVFLHPHYGLPNEVYGPRSEEYGHVLPLALGFPMETTIAVARMYMAGVFDHVRNLQMLLAHSGGTLPFLAGRIESCIVHDGHLVKTGKVPKDRRTIWTVLKEQIYLDAVIYSEVGLQAAIASSGADRLMFGTDHPFFPPIEEDVQGPWDSSRLNAQAVIKAVGEGSSDAAAVMGLNAVRVLSLKAE | 0.8
